The values that follow come from PMC10119177 (2023).

B1: recombinant CEACAM1 N-terminal domain with His tag (rCEACAM1-N-HIS), wildtype [human] / IgI3 domain of R28 (R28-IgI3), wildtype [Streptococcus pyogenes] (parent complex)
chain 1: AQLTTESMPFNVAEGKEVLLLVHNLPQQLFGYSWYKGERVDGNRQIVGYAIGTQQATPGPANSGRETIYPNASLLIQNVTQNDTGFYTLQVIKSDLVNEEATGQFHVY
chain 2: TAPTLTVTPEQQTVKVDEDITFTVTVEDENEVELGLDDLKAKYENDIIGARVKIKYLTKEPNKKVMEVTIMKATLADKGAITFTAKDKAGNQAEPKTVTINVLPLKDSNEPKLPSTGGS

In one experiment the parent is B1. Briefly: Dynabead binding assay (Dynabeads coated with R28-IgI3, DB.R28IgI3, incubated with rCC1-N); parent: 33; read off a plot.
With chain 2 I54A, the response was roughly 19.

chain 2 I48A: the response is roughly 5.5.

For chain 2 E44A, the response was roughly 40.

Regarding chain 2 K40A, the response is roughly 7.

Take chain 2 I47A: the response was roughly 5.5.

Take chain 2 K59A: the response was roughly 21.

As to chain 2 Y56A, the response was roughly 7.

Variants of B1 are the subject of a further experiment. Briefly: Dynabead binding assay (Dynabeads coated with R28-IgI3, DB.R28IgI3, incubated with rCC1-N variants); parent: 23; read off a plot.
On to chain 1 Q90A, for which the response was roughly 10.

For chain 1 L96A, the response was roughly 6.

Consider chain 1 I92A, for which the response was roughly 5.

In the case of chain 1 N98A, the response was roughly 90.

For the variant chain 1 V97A, the response is roughly 100.

With chain 1 Q45A, the response is roughly 20.

Turning to chain 1 F30A, the response was roughly 5.5.
